Publication PMC10060354, “Discovery of a small molecule ligand of FRS2 that inhibits invasion and tumor growth” (Cellular Oncology, 2022)
Ends that are not written are not given here.

Key:
FRS2_PTB = biological target: T1, FRS2_PTB (Homo sapiens, UniProt Q8WU20); experiment: nano differential scanning fluorimetry (nanoDSF); assay type: binding; details: 500 μM ligand
T1 construct: FRS2-PTB 11-140aa; 6xHis; made in house; host or cells: E. coli BL21 (DE3)
T1 sequence (Q8WU20 11-140): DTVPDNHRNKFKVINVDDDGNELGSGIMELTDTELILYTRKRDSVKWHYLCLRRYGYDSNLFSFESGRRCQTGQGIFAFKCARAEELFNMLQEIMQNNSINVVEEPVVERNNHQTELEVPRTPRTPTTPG
Procedure: (§1) Assay establishment and pilot nanoDSF experiments were performed with a Tycho® system. Each experiment was performed by mixing the protein and ligand of interest at a 1:1 ratio and subsequent incubation for 15–30 min at room temperature. Controls of protein alone and ligand alone in identical buffer compositions as for the complex were measured accordingly. The temperature gradient ranged from 35 to 95 °C, and the heating rate was 30 °C/min. Inflection temperatures TI were calculated from the first derivative of the spectra obtained at the ratio of the signals at 350 nm to those at 330 nm. ΔTI of a complex was calculated as following: ΔTI,complex = TI,complex – TI,protein.
The in-built software version 1.1.5.668 (NanoTemper Technologies, Munich, Germany) and Microsoft Office Excel 365 (Microsoft Corp., Seattle, USA) was used for data analysis. Data was plotted with GraphPad Prism vers. 8.3.0 (GraphPad Software, San Diego, USA).
Purified FRS2_PTB or GB1_FRS2_PTB protein tagged with 6 × Histidine residues and the B1 immunoglobulin binding domain of the streptococcal protein G (GB1) were diluted in the protein buffer (100 mM sodium phosphate, 50 mM NaCl, 0.5 mM EDTA, 50 mM arginine, 1 mM TCEP, pH 7.0) to 30 μM, GB-1 to 40 μM. FGFR_PEP, compounds or paracetamol (PARA) as negative control were dissolved at 1 mM in the protein buffer supplemented with 10% DMSO. Compound and protein were mixed at 1:1 volume ratio yielding a final concentration of 15 μM and 20 μM for FRS2_PTB/GB1_FRS2_PTB and GB1, respectively, as well as 500 μM for FGFR_PEP or compounds. The mixture was incubated for 15 min. Each compound was measured in triplicates. Protein controls were measured in six replicates in the beginning. The quality of the screen was assessed by the Z-factor. nanoDSF validation studies were performed on a Prometheus® system in high sensitivity capillaries. Samples were heated with 1 °C/min from 20 to 95 °C. Each compound was measured in triplicates. GB1-FRS2_PTB and GB1 were diluted in the protein buffer (100 mM sodium phosphate, 50 mM NaCl, 0.5 mM EDTA, 50 mM arginine, 1 mM TCEP, pH 7.0) to 30 μM. Compounds 3.3, 3.4, 3.18 as well as the 3.18 analogues were dissolved in 100% DMSO at 50 or 100 mM and further diluted to 1 mM with a final DMSO-concentration of 100%. FGFR_PEP was dissolved at 1 mM in the protein buffer supplemented with 10% DMSO. Compound and protein were mixed at 1:1 volume ratio yielding final concentrations of 15 μM protein and 500 μM for the compounds. FGFR_PEP was measured against both GB1-FRS2_PTB and GB1, all other compounds only against GB1-FRS2_PTB. The mixture was incubated for 15 min before measurement. The data was analyzed for both the ratio of signals at 330 and 350 nm and at 350 nm alone. […]

GB1-FRS2-PTB = biological target: T2, GB1-FRS2-PTB (Homo sapiens, UniProt Q8WU20); experiment: nanoDSF with GB1-fused PTB domain; assay type: binding
T2 construct: FRS2-PTB 11-140aa; 6xHis (N); made in house; host or cells: E. coli BL21 (DE3)
T2 sequence (Q8WU20 11-140): T1 sequence (Q8WU20 11-140)
Procedure: as §1, with “TI,protein. […]” for “TI,protein.”
Purified FRS2_PTB or GB1_FRS2_PTB protein tagged with 6 × Histidine residues and the B1 immunoglobulin binding domain of the streptococcal protein G (GB1) were diluted in the protein buffer (100 mM sodium phosphate, 50 mM NaCl, 0.5 mM EDTA, 50 mM arginine, 1 mM TCEP, pH 7.0) to 30 μM, GB-1 to 40 μM. […] Each compound was measured in triplicates. Protein controls were measured in six replicates in the beginning. The quality of the screen was assessed by the Z-factor. nanoDSF validation studies were performed on a Prometheus® system in high sensitivity capillaries. […] Each compound was measured in triplicates. […] FGFR_PEP was measured against both GB1-FRS2_PTB and GB1, all other compounds only against GB1-FRS2_PTB. […]

GB1-FRS2_PTB [1] = biological target: T3, GB1-FRS2_PTB (human, UniProt Q8WU20 15-135, 2nd Generation BLUE-NHS dye (in the MST only)); experiment: nanoDSF (thermal shift); 15 uM protein mixed with 500 uM FGFR_PEP, incubated 15 min; 100 mM sodium phosphate, 50 mM NaCl, 0.5 mM EDTA, 50 mM arginine, 1 mM TCEP, pH 7.0, with DMSO; shift of the inflection or melting temperature against protein alone; details: both partners purified
T3 construct: Fibroblast growth factor receptor substrate 2 (FRS2), human, PTB domain, residues 15 to 135; Vector pEM3BT2; also called GB1-fused PTB domain; source: E. coli BL21 (DE3), purified (Ni-NTA); not shown: His6, N-terminal, kept
T3 sequence (looked up): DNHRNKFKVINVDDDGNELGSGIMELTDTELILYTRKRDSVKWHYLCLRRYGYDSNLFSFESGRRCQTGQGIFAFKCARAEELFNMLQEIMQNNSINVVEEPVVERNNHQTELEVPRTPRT

[2] = biological target: T4, FRS2_PTB (PTB domain of human FRS2) (human, UniProt Q8WU20 15-135); experiment: as above; details: both partners purified
T4 construct: Fibroblast growth factor receptor substrate 2 (FRS2), human, PTB domain, residues 15 to 135 as the methods state for the PTB domain constructs; The limits 15-135 are stated in the methods sentence that describes the GB1 fusions; also called FRS2-PTB domain; PTB domain of FRS2; source: E. coli BL21 (DE3), purified (Ni-NTA)
T4 sequence (looked up): T3 sequence (looked up)

GB1-FRS2_PTB [3] = biological target: T3, GB1-FRS2_PTB; experiment: MST; GB1-FRS2_PTB labelled with BLUE-NHS dye at 25 nM; FGFR_PEP in 1:1 serial dilution from 1 mM to 61.04 nM; 25 C; 100 mM sodium phosphate, 50 mM NaCl, 0.5 mM EDTA, 50 mM arginine, 1 mM TCEP, pH 7.0, with and without DMSO; MST trace analysis; details: both partners purified

## HSQMAVHKLAKSIPLRRQVTVS [FGFR peptide, reference compound]
FRS2_PTB
  nanoDSF shift of the inflection point of the melting curve (ΔTm): 19 ± 0.1 °C
GB1-FRS2-PTB
  nanoDSF shift in the melting temperature: 10.5 ± 0.1 °C

## HSQMAVHKLAKSIPLRRQVTVS (also called FGFR1 peptide) [FGFR peptide (FGFR_PEP)]
GB1-FRS2_PTB [1]
  shift in the melting temperature (nanoDSF): 10.5 ± 0.1 °C
[2]
  shift of the inflection point of the melting curve (nanoDSF): 19 ± 0.1 °C
GB1-FRS2_PTB [3]
  Kd: 1000 ± 200 nM
